{"source": "paper PMC11921379", "about": "“TK2268 encodes the major aminotransferase involved in the conversion from oxaloacetic acid to aspartic acid in Thermococcus kodakarensis” (Applied and Environmental Microbiology, 2025)", "molecules": {"B1": {"name": "TK2268p (TK2268 protein) (Thermococcus kodakarensis KOD1) (protein)", "chain": "MRYKKRKYFMAGRINILQRSKIRELFEKASKMENVISLGIGEPDFDTPEVIKEAAKRAIDEGYTHYTPNAGIPEFREAIAEYYKEFYNVDVDMNNIIVTAGAYEATYLAFESILEQGDDVIIPDPAFVCYVEDAKIAEAGIIRIPLREENKFRIDPDELLEAITKRTRMIVMNYPNNPTGAIMKKDVAKAIADIAQDYNIYILSDEPYEHFLYEGARHHPMIKYAPDNTILANSFSKTFAMTGWRLGFAIAPEQVIRDMIKLHAYVIGNVTSFIQIAGITALRDKRSWEAVERMRQVYDERRKLVLKYLNDMPHITPFRPKGAFYIWAKIDPELDMTSEDFAEWLLENAGVVVIPGTAFGRQGEGWIRISYATEKEKLIEAMERMKEALSKL", "notes": "full-length, C-terminal His6-tag, overexpressed homologously in T. kodakarensis, His GraviTrap and gel filtration"}}, "key": {"TK2268p (TK2268 protein)": {"target": "T1, TK2268p (TK2268 protein) (Thermococcus kodakarensis, UniProt Q5JHU0)", "T1 construct": "full-length, C-terminal His6-tag, overexpressed homologously in T. kodakarensis, His GraviTrap and gel filtration", "experiment": "initial velocity, HPLC after o-phthalaldehyde derivatization; substrate inhibition fit", "format": "biochemical", "details": "substrate inhibition constant, second site (second substrate binding to enzyme-substrate complex), 20 µM PLP, 50 mM HEPES pH 7.5, 80°C", "source_text": "(§1) initial velocity, HPLC after o-phthalaldehyde derivatization; substrate inhibition fit on TK2268p (TK2268 protein)"}, "[1]": {"substrate": "O=C(O)CCC(=O)C(=O)O", "experiment": "initial velocity, HPLC after o-phthalaldehyde derivatization; substrate inhibition fit", "format": "biochemical, Thermococcus kodakarensis", "details": "amino acceptor, 10 mM Asp, 20 µM PLP, 50 mM HEPES pH 7.5, 80°C, substrate inhibition model, Ks1 described as dissociation constant of first substrate", "source_text": "as §1"}, "[2]": {"substrate": "N[C@@H](CCC(=O)O)C(=O)O", "experiment": "initial velocity, HPLC after o-phthalaldehyde derivatization", "format": "biochemical, Thermococcus kodakarensis", "details": "amino donor, 10 mM oxaloacetate, 20 µM PLP, 50 mM HEPES pH 7.5, 80°C", "source_text": "initial velocity, HPLC after o-phthalaldehyde derivatization on TK2268p (TK2268 protein)"}, "purified protein [3]": {"substrate": "O=C(O)CC(=O)C(=O)O", "experiment": "purified protein", "format": "biochemical, Thermococcus kodakarensis", "details": "amino acceptor, 4 mM glutamate, 20 µM PLP, 50 mM HEPES pH 7.5, 80°C, substrate inhibition model, Ks1 described as dissociation constant of first substrate"}, "purified protein [4]": {"substrate": "N[C@@H](CC(=O)O)C(=O)O", "experiment": "purified protein", "details": "amino donor, 10 mM 2-oxoglutarate, 20 µM PLP, 50 mM HEPES pH 7.5, 80°C"}}, "data": [{"molecule": "O=C(O)CC(=O)C(=O)O", "note": "[OAA, oxaloacetate]", "values": [{"measurement": "Km", "setting": "TK2268p (TK2268 protein); 4 mM glutamate", "result": "13.2 ± 1.2", "unit": "mM"}]}, {"molecule": "O=C(O)CCC(=O)C(=O)O", "note": "[2-OG, 2-oxoglutarate]", "values": [{"measurement": "Km", "setting": "TK2268p (TK2268 protein); 10 mM Asp", "result": "5.9 ± 1.6", "unit": "mM"}]}, {"molecule": "B1", "values": [{"measurement": "Km", "setting": "[1]", "result": "38.8 ± 9.6", "unit": "mM"}, {"measurement": "Vmax", "setting": "[1]", "result": "1040 ± 230", "unit": "µmol/min/mg"}, {"measurement": "kcat", "setting": "[1]", "result": "781 ± 244", "unit": "s⁻¹"}, {"measurement": "kcat/Km", "setting": "[1]", "result": 20100, "unit": "M⁻¹ s⁻¹"}, {"measurement": "Km", "setting": "[2]", "result": "3.4 ± 0.3", "unit": "mM"}, {"measurement": "Vmax", "setting": "[2]", "result": 443, "unit": "µmol/min/mg"}, {"measurement": "kcat", "setting": "[2]", "result": "333 ± 12", "unit": "s⁻¹"}, {"measurement": "kcat/Km", "setting": "[2]", "result": 97800, "unit": "M⁻¹ s⁻¹"}, {"measurement": "Km", "setting": "purified protein [3]", "result": "1.3 ± 0.1", "unit": "mM"}, {"measurement": "Vmax", "setting": "purified protein [3]", "result": 360, "unit": "µmol/min/mg"}, {"measurement": "kcat", "setting": "purified protein [3]", "result": "270 ± 16", "unit": "s⁻¹"}, {"measurement": "kcat/Km", "setting": "purified protein [3]", "result": 208000, "unit": "M⁻¹ s⁻¹"}, {"measurement": "Km", "setting": "purified protein [4]", "result": "10.3 ± 0.5", "unit": "mM"}, {"measurement": "Vmax", "setting": "purified protein [4]", "result": 232, "unit": "µmol/min/mg"}, {"measurement": "kcat", "setting": "purified protein [4]", "result": 175, "unit": "s⁻¹"}, {"measurement": "kcat/Km", "setting": "purified protein [4]", "result": 17000, "unit": "M⁻¹ s⁻¹"}]}]}
